Laboratory results taken from doi:10.1101/2024.06.23.600241 (bioRxiv, 2024).

Legend:
PvDBP-RII subdomain 3 [1] = biological target: T1, PvDBP-RII subdomain 3 (Plasmodium vivax, UniProt P22290 211-508); assay: SPR
T1 chain: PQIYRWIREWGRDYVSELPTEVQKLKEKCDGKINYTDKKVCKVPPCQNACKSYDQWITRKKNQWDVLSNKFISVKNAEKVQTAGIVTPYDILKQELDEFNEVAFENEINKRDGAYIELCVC

[2] = biological target: T2, Plasmodium vivax Duffy binding protein region II (PvDBP-RII) (Plasmodium vivax, UniProt P22290 211-508); assay: SPR
T2 chain: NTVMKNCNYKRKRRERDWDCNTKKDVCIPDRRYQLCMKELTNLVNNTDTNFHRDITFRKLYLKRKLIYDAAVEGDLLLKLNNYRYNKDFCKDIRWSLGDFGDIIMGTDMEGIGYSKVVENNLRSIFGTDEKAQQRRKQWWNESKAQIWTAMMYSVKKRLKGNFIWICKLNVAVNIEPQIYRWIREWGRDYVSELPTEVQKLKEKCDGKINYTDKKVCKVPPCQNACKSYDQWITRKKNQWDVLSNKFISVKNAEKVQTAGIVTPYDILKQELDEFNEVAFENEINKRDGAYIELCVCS

PvDBP-RII subdomain 3 [3] = biological target: T3, PvDBP-RII subdomain 3 (Plasmodium vivax Salvador I, UniProt P22290); assay: SPR; Biacore T200; DB9 captured on a CM5 chip amine-coupled with protein A/G; analytes flowed in a two-fold dilution series from 1 μM; 20mM HEPES pH 7.4, 150mM NaCl, 0.005% Tween-20; settings: both partners purified
T3 construct: also called SD3; not shown: His-tag, N-terminal, cleaved

[4] = biological target: T4, Plasmodium vivax Duffy binding protein region II (PvDBP-RII) (Plasmodium vivax Salvador I (strain as …, UniProt P22290)); assay: as above; settings: both partners purified
T4 construct: The tag and its TEV cleavage hold only if the pET15b construct was the one used; SalI is named only for the transgenic parasites; also called RII region of PvDBP; source: the same paragraph also says cloned into modified pET15b, expressed in E. coli BL21-DE3; not shown: His-tag, N-terminal, cleaved

B1: monoclonal antibody DB9 (antibody, V domains shown)
VH: EVQLQESGPGLVKPSETLSLTCTVSGGSVSSSTYYWGWVRQPPGKGLEWIGSIYYSGSTYYNPSLKSRVTISVDTSKNQFSLKLSSVTAADTAVYYCARDGTGALDLWGRGTLVTVSS
VL: DIVMTQSPSTLSASVGDRVTITCRASQSISSWLAWYQQRPGKAPRLLIYKASSLLSGVPSRFGGSGSGTDFTLTISSLQPDDFATYHCQHYNTYPWTFGQGTKVEIK
notes: the Fab part of the heavy chain is in PDB 6R2S and PDB 9EZE; the light chain is in PDB 6R2S and PDB 9EZE
- koff (PvDBP-RII subdomain 3 [1]): 0.00172 s⁻¹
- koff [2]: 0.000976 s⁻¹
- Kd (PvDBP-RII subdomain 3 [3]): 1.11 nM
- Kd [4]: 2.63 nM
